Experimental data as given in publication PMC11220700, “Activation and Purification of ß‐Glucocerebrosidase by Exploiting its Transporter LIMP‐2 – Implications for Novel Treatment Strategies in Gaucher's and Parkinson's Disease” (Advanced Science, 2024).
*: point of attachment. Biotin = O=C1N[C@H]2[C@H](CS[C@H]2CCCCC(=O)*)N1

T1: His‐tagged GCase wt (10xHis, C‐terminal, TEV‐cleavable) (human, UniProt P04062-1 40-536, red fluorescent dye NT-637 on amines (RED-NHS labelling kit), for MST)
T1 construct: human beta-glucocerebrosidase (GCase) wild type, secreted from cells transfected with pCMV-3-GBA-His; also called GCase-His; source: HEK 293F, transfected, purified from conditioned medium (Ni-NTA); not shown: 10xHis (TEV-cleavable), C-terminal, kept
T1 sequence (looked up): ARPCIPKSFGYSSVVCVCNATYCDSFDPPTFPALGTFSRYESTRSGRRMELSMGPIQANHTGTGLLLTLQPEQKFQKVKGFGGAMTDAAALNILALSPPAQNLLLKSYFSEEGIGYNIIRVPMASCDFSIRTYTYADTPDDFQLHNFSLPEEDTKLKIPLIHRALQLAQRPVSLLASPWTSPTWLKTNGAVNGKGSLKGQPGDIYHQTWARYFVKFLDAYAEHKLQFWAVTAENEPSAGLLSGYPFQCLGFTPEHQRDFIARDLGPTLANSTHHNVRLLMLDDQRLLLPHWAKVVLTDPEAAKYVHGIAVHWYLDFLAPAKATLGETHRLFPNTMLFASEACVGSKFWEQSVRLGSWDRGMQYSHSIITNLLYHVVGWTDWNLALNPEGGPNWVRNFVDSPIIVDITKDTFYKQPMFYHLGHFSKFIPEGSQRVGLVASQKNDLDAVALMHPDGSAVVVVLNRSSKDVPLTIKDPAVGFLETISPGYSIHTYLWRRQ

T2: untagged GCase E326K (human, UniProt P04062-1 40-536, E326K)
T2 construct: human beta-glucocerebrosidase (GCase), disease-associated variant E326K, untagged; printed also as p.Glu365Lys (NM_000157.4); numbers count on: the mature protein; also called E326K GCase; p.E326K; source: HEK 293F, transfected (with sLIMP-2 or alone), in conditioned medium; co-purified with sLIMP-2 (Ni-NTA, SEC)
T2 sequence (looked up): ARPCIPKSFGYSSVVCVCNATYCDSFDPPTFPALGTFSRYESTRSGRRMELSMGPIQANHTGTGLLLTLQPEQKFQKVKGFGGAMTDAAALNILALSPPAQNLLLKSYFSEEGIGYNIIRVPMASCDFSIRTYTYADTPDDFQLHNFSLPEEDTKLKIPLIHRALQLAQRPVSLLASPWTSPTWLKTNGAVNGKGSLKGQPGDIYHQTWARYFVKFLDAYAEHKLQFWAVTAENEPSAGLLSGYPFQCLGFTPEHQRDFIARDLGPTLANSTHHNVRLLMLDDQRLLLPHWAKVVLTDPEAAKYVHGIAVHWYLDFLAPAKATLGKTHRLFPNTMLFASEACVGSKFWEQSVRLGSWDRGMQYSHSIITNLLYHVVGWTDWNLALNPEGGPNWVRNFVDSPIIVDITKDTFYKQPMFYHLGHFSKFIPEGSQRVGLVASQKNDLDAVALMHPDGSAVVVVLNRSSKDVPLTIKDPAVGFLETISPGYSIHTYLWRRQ

T3: untagged human GCase wt (human, UniProt P04062-1 40-536)
T3 construct: human beta-glucocerebrosidase (GCase) wild type, untagged, secreted into the medium; also called wt GCase; beta-glucocerebrosidase; source: HEK 293F, transfected (with sLIMP-2 or alone), in conditioned medium; co-purified with sLIMP-2 (Ni-NTA, SEC)
T3 sequence (looked up): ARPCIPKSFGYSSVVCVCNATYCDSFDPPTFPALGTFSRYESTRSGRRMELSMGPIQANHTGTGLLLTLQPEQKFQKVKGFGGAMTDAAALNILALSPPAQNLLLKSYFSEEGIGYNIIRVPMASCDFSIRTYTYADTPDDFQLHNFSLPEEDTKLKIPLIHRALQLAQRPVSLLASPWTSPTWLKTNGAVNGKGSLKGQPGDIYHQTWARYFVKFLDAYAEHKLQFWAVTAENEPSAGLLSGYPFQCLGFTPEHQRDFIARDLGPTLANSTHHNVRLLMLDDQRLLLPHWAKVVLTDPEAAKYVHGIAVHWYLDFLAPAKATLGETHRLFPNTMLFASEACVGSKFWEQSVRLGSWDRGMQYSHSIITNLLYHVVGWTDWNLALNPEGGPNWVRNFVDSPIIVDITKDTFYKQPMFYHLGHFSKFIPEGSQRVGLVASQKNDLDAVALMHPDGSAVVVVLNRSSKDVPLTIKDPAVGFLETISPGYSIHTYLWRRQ

T4: untagged GCase N370S (human, UniProt P04062-1 40-536, N370S)
T4 construct: human beta-glucocerebrosidase (GCase), disease-associated variant N370S, untagged; numbers count on: the mature protein; also called N370S GCase; p.N370S; source: HEK 293F, transfected with sLIMP-2, in conditioned medium; co-purified with sLIMP-2 (Ni-NTA, SEC)
T4 sequence (looked up): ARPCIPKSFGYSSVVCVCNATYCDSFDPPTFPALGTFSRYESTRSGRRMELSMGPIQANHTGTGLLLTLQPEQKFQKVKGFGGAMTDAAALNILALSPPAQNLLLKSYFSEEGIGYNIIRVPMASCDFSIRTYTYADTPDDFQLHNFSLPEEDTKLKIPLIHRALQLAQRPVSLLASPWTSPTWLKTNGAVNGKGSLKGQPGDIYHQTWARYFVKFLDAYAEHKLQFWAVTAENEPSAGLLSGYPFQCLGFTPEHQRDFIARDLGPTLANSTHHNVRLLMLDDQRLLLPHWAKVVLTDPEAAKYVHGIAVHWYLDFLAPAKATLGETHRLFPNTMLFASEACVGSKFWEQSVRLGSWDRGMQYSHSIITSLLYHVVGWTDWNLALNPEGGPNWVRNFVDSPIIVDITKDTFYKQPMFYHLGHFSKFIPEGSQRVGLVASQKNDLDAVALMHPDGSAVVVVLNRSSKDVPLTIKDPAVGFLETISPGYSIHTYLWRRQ


What was measured:
[1] = target: T1, His‐tagged GCase wt (10xHis, …); assay: MST; GCase-His labelled, L2H5-wt titrated; lysosomal pH (pH 5.0); saturation not reached; settings: both partners purified
[2] = target: T1, His‐tagged GCase wt (10xHis, …); assay: MST; GCase-His labelled with NT-637, fixed at 25 nM; L2H5-wt titrated in a twofold series of 16 from 125 µM; 50 mM sodium citrate + 0.05% Tween-20, pH 7.4 (cytosolic pH); ambient temperature; the two highest concentrations left out of the Kd fit; settings: both partners purified
untagged GCase E326K = target: T2, untagged GCase E326K; assay: pull-down; Ni-NTA beads in conditioned medium of HEK 293F cells expressing His-tagged sLIMP-2 with untagged GCase (96 h); overnight at 4 °C; wash with 20 mM imidazole, elution with 400 mM imidazole, pH 8.0; western blot; settings: partners not purified
untagged human GCase wt = target: T3, untagged human GCase wt; assay: as above; settings: partners not purified
untagged GCase N370S = target: T4, untagged GCase N370S; assay: as above; settings: partners not purified

Binder	Kd [1] [µM]	Kd [2] [µM]	binding result (untagged GCase E326K)	binding result (untagged human GCase wt)	binding result (untagged GCase N370S)
Biotin-KFERQGSGSQVHFLREIIEAMLKAYQSGSGYGRKKRRQRRR-NH2 (also called LIMP-2-derived peptide; LIMP-2-mimicking peptide; source: synthetic peptide (BioCat, >95% purity)) [L2H5‐wt peptide (LIMP‐2‐derived helix 5 peptide)]	~98	0.153 ± 0.037	–	–	–
soluble LIMP‐2 (sLIMP‐2), secreted LIMP‐2 ectodomain (domain or fragment, human, UniProt Q14108 36-431, looked up, lysosomal integral membrane protein 2 (LIMP-2), human, luminal domain, amino acids 36-431; also called LIMP-2 shuttle; sLIMP-2-shuttle; source: HEK 293F, transfected, secreted into conditioned medium; purified (Ni-NTA, SEC); not shown: 10xHis (TEV-cleavable), C-terminal, kept) SIEKKIVLRNGTEAFDSWEKPPLPVYTQFYFFNVTNPEEILRGETPRVEEVGPYTYRELRNKANIQFGDNGTTISAVSNKAYVFERDQSVGDPKIDLIRTLNIPVLTVIEWSQVHFLREIIEAMLKAYQQKLFVTHTVDELLWGYKDEILSLIHVFRPDISPYFGLFYEKNGTNDGDYVFLTGEDSYLNFTKIVEWNGKTSLDWWITDKCNMINGTDGDSFHPLITKDEVLYVFPSDFCRSVYITFSDYESVQGLPAFRYKVPAEILANTSDNAGFCIPEGNCLGSGVLNVSICKNGAPIIMSFPHFYQADERFVSAIEGMHPNQEDHETFVDINPLTGIILKAAKRFQINIYVKKLDDFVETGDIRTMVFPVMYLNESVHIDKETASRLKSMINT	–	–	binds	binds	binds
